Experimental findings from patent publication US20210317225A1 (Genmab, published 2021) are described below.

In assay [1] the target is T1, Human CD137 shuffle 2 (amino acids 139-161 replaced by wild boar CD137) (human, amino acids 139-161 from wild …, UniProt Q07011 24-255).
T1 construct: also called shuffle construct 2
T1 chain: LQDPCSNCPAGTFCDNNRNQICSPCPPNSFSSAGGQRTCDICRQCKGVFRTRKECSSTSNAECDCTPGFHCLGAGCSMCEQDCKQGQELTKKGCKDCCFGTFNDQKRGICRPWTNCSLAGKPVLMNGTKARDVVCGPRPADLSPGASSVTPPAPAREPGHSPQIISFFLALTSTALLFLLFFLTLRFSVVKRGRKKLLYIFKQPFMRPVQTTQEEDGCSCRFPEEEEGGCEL
Nature of the assay: flow cytometry on transfected HEK293T-17 cells, 1 µg/mL antibody. Here is the method: (§1) 3×10⁶ HEK293T-17 cells were seeded in T75 culture flasks (Greiner Bio-One, cat. no. 658175) in 20 mL RPMI 1640 GlutaMAX medium containing 10% FCS (Biochrom, cat. no. S 0115). After O/N incubation, cells were transiently […] with expression vectors encoding the shuffle constructs or the wild boar, African elephant or human CD137 downstream of a constitutively active human elongation factor-1 alpha (EF-1 alpha) promotor using TransIT®-LT1 Transfection Reagent, Mirus Bio (VWR International, cat. no. 731-0029), according to the manufacturer's instructions. The next day, cells were harvested using 1.5 mL Accutase (Sigma Aldrich, cat. no. A6964) (incubation at 37° C. for 5 min.) and flow cytometry was performed, essentially as described in Example 4, to measure surface expression of the shuffle constructs and the human, African elephant and wild boar CD137 and to measure binding of the antibody clones to the different shuffle constructs. To measure cell surface expression of the constructs, transduced cells were incubated with 1 μg/mL goat polyclonal anti-human CD137 (R&D Systems, cat. no. AF838) in FACS buffer (D-PBS supplemented with 5 mM EDTA [Sigma Aldrich, cat. no. 03690] and 5% (v/v) fetal bovine serum [FBS, Biochrom, cat. no. S 0115]) (4° C., 20 min.), followed by incubation with APC-labeled anti-goat IgG (H+L) (R&D Systems, cat. no. F0108) (4° C., 20 min.). Binding of the different CD137 antibody clones to cells expressing the shuffle constructs was measured by incubation of the transduced cells with 1 μg/mL of the antibody clones, followed by APC-labeled AffiniPure F(ab′)2 Fragment (1:50 final dilution; Jackson, cat. no. 109-136-127).
In general terms: Flow cytometry measures light scatter and fluorescence of single cells or particles in a stream.

In assay [2] the target is T2, Human CD137 shuffle 1 (amino acids 162-186 replaced by wild boar CD137) (human, amino acids 162-186 from wild …, UniProt Q07011 24-255).
T2 construct: also called shuffle construct 1
T2 chain: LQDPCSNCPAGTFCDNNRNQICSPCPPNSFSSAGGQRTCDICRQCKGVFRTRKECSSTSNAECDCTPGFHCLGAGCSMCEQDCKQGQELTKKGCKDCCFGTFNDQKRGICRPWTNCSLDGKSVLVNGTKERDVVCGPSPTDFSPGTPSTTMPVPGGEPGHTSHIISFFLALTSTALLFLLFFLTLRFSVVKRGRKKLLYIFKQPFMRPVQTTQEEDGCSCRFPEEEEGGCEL
The description is as above. Here is the method: as §1

Assay [3] deals with T3, Human CD137 shuffle 5 (amino acids 48-88 replaced by African elephant CD137) (human, amino acids 48-88 from African …, UniProt Q07011 24-255).
T3 construct: also called shuffle construct 5
T3 chain: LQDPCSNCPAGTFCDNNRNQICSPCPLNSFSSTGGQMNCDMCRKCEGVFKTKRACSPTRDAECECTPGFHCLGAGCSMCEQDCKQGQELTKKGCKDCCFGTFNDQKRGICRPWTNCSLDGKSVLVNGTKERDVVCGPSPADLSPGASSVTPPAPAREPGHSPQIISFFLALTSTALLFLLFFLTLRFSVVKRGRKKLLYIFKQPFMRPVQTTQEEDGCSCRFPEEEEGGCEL
The description is as above. Here is the method:
as §1

In assay [4] the target is T4, Human CD137 (TNR9_Human) (human, UniProt Q07011 24-255).
T4 construct: Full-length human CD137 expressed on HEK293T-17, NF-kB/293/GFP-Luc or K562 cells, or native on T cells; also called hCD137 wt; 4-1BB
Nature of the assay: flow cytometry, HEK293-T17 cells transiently transfected with human CD137, antibody at 1 µg/mL, APC-labeled F(ab')2 secondary. The protocol:
(§2) FIG. 4: Binding of CD137 antibody clones to CD137 shuffle constructs expressed on HEK293-T17 cells. HEK293-T17 cells were transfected with the CD137 shuffle constructs, and with human CD137 (hCD137 wt), African elephant of wild boar CD137, as indicated. Binding of the different CD137 antibody clones to these constructs expressed on HEK293-T17 cells was measured by flow cytometry. Staining with polyclonal anti-CD137 antibody is shown as a control.
as §1

In assay [5] the target is T5, Human CD137 shuffle 3 (amino acids 115-138 replaced by wild boar CD137) (human, amino acids 115-138 from wild …, UniProt Q07011 24-255).
T5 construct: also called shuffle construct 3
T5 chain: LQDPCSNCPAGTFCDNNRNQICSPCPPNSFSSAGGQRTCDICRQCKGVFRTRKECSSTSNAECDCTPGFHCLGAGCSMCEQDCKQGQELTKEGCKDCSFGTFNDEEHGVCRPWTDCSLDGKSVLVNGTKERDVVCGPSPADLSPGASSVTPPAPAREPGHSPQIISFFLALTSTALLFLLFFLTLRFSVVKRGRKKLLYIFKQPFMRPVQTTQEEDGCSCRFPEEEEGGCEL
Nature of the assay: flow cytometry on transfected HEK293T-17 cells. Here is the method:
as §1

In assay [6] the target is T6, Human CD137 shuffle 4 (amino acids 89-114 replaced by wild boar CD137) (human, amino acids 89-114 from wild boar, UniProt Q07011 24-255).
T6 construct: also called shuffle construct 4
T6 chain: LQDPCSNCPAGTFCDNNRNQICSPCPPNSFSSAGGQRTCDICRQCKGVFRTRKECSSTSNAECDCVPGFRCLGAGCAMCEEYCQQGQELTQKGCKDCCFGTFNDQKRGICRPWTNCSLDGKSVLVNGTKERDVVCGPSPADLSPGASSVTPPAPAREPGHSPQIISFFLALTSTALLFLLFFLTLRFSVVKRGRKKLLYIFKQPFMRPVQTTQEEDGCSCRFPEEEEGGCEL
Nature of the assay: flow cytometry on transfected HEK293T-17 cells. Here is the method: as §1

The target in assay [7] is T5, Human CD137 shuffle 3 (amino acids …). Nature of the assay: flow cytometry on transfected HEK293T-17 cells, 1 µg/mL antibody. Here is the method: as §1
For assay [8], the target named is T6, Human CD137 shuffle 4 (amino acids …). The assay is described as above. Here is the method:
as §1

Assay [9] addresses T4, Human CD137 (TNR9_Human). Nature of the assay: flow cytometry, HEK293-T17 cells transiently transfected with human CD137, antibody at 1 µg/mL, APC-labeled F(ab')2 secondary [cont.]. The protocol: as §2, §1
Assay [10] deals with T3, Human CD137 shuffle 5 (amino acids …). Nature of the assay: flow cytometry on transfected HEK293T-17 cells. The protocol: as §1
The target in assay [11] is T7, Human CD137 shuffle 6 (amino acids 24-47 replaced by wild boar CD137) (human, amino acids 24-47 from wild boar, UniProt Q07011 26-200).
T7 construct: also called shuffle construct 6
T7 chain: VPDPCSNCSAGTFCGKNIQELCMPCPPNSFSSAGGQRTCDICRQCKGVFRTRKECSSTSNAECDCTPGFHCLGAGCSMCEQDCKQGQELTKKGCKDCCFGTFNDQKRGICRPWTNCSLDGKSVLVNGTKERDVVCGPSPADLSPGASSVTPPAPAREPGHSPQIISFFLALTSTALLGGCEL
Nature of the assay: flow cytometry on transfected HEK293T-17 cells. Here is the method:
as §1

B1: CD137 antibody clone 004 (rabbit) (antibody, human IgG1, kappa, V domains shown)
VH: QSLEESGGRLVTPGTPLTLTCTASGFSLSRYDMSWVRQAPGKGLEYIGVISSSGGTNYANWAKGRFTISKTSTTVDLKITSPTTEDTATYFCAREGDYWDFNLWGPGTLVTVSS
VL: AQVLTQTPSSVSAAVGGTVTINCQASQSISNLLAWYQQKPGQPPKLLIYGASTLASGVPSRFSGSGSGTEFTLTISDLESDDAATYYCAGGFPGLDTVAAFGGGTEAVVTR
notes: also called Clone 4; CD137 clone 004
On to B1, for which the binding result in [1] was “binds”; in assay [2], “binds”; in assay [3] it was “binds”; in [4], “binds”; in assay [5], “no binding (tested: 1 µg/mL)”; in assay [6], “no binding (tested: 1 µg/mL)”.

B2: CD137 antibody clone 010 (rabbit) (antibody, human IgG1, kappa, V domains shown)
VH: QSVEESGGRLVTPGTPLTLTCTVSGFSLSTYAMIWVRQAPGKGLEWIGVVYDNGYISHATWVKGRFTISKTSTTVGLEITSPTTEDTATYFCARSADGSWSTYFNLWGQGTLVTVSS
VL: DIVMTQTPASVEAAVGGTVTIKCQASESISNYLAWYQQKPGQPPKLLIYKASTLASGVSSRFKGSGSGTEFTLTISDLESADAATYYCQTNYCCSSSDNGFAFGGGTEVVVKR
notes: also called Clone 10; CD137 clone 010
Consider B2, for which the binding result was “binds” in [7]; “binds” in assay [1]; “binds” in assay [8]; “binds” in [2]; “binds” in assay [9]; “no binding (tested: 1 µg/mL)” in assay [10].

B3: CD137 antibody clone 009 (rabbit) (antibody, human IgG1, kappa, V domains shown)
VH: QSLEESGGRLVTPGTPLTLTCTVSGFSLNDYWMSWVRQAPGKGLEWIGYIDVGGSLYYASWAKGRFTISRTSTTVDLKMTSLTTEDTATYFCARGGLTYGFDLWGPGTLVTVSS
VL: DIVMTQTPASVSEPVGGTVTINCQASEDISSYLAWYQQKPGQRPKRLIYGASDLASGVPSRFSASGSGTEYALTISDLESADAATYYCHYYATISGLGVAFGGGTEVVVKR
notes: also called Clone 9; CD137 clone 009
On to B3, for which the binding result in assay [7] was “binds”; in assay [1], “binds”; in assay [8], “binds”; in assay [2], “binds”; in [9] it was “binds”; in assay [10], “no binding (tested: 1 µg/mL)”.

B4: CD137 antibody clone 011 (rabbit) (antibody, human IgG1, kappa, V domains shown)
VH: QSLEESGGRLVTPGTPLTLTCTVSGIDLSSYHMCWVRQAPGKGLEYIGYIAYGGNTYYANWAKGRFTISKTSTTVDLRITSPTTEDTATYFCARGYSEDSYWGLWGPGTLVTVSS
VL: AYDMTQTPASVEAAVGGTVTIKCQASQNIENYLAWYQQKPGQPPKLLIYDTSKLTSGVPSRFSGSGSGTDFTLTISGVQSDDAATYYCQQDYGIIFVDNIFGGGTEVVVKR
notes: also called Clone 11; CD137 clone 011
For the molecule B4, the binding result in assay [1] is recorded as “binds”; in [2], “binds”; in assay [3], “binds”; in [9], “binds”; in assay [5], “no binding (tested: 1 µg/mL)”; in assay [6], “no binding (tested: 1 µg/mL)”.

B5: CD137 antibody clone 005 (rabbit) (antibody, human IgG1, kappa, V domains shown)
VH: QSVEESGGRLVTPGTPLTLTCTASGFTISDFHVTWVRQAPGKGLEWIGTIITSASTTAYATWARGRFTISKSSTTVNLKIVSPTTEDTATYFCARSTYTDTSGYYFDFWGQGTLVTVSS
VL: AQVLTQTASPVSAAVGGTVIINCQSSQSIYNGNRLSWYQQKPGQPPKLLIYSASTLASGVSSRFKGSGSGTQFTLAISDVQSDDAATYYCLGSYDCDSADCFAFGGGTEVVVER
notes: also called Clone 5; CD137 clone 005
Consider B5, for which the binding result in [7], in assay [1], in assay [8], in assay [2], in assay [3] and in assay [4] was “binds” each time. Also, the binding result in assay [11] is given as “no binding (tested: 1 µg/mL)”.
